One molecule from US20220411530A1 (NANTONG YICHEN BIOPHARMA, published 2022) can be followed below.

Experiment [1] concerns the target T1, CD3 on Jurkat (CD3+) cells (Homo sapiens (Human), UniProt P07766 23-207; P04234 22-171; P09693 23-182).
T1 construct: also called Jurkat T cells
Briefly: flow cytometry on Jurkat (CD3+) cells.

In experiment [2] the target is T2, PSMA on the surface of LnCap cells (human, UniProt Q04609 1-750).
T2 construct: whole, on cells; also called LnCap (PSMA+) cells
Briefly: flow cytometry on LnCap (PSMA+) cells.

Experiment [3] concerns the target T2, PSMA on the surface of LnCap cells. Briefly: cell-based or functional assay.

T2 sequence (Q04609 whole entry): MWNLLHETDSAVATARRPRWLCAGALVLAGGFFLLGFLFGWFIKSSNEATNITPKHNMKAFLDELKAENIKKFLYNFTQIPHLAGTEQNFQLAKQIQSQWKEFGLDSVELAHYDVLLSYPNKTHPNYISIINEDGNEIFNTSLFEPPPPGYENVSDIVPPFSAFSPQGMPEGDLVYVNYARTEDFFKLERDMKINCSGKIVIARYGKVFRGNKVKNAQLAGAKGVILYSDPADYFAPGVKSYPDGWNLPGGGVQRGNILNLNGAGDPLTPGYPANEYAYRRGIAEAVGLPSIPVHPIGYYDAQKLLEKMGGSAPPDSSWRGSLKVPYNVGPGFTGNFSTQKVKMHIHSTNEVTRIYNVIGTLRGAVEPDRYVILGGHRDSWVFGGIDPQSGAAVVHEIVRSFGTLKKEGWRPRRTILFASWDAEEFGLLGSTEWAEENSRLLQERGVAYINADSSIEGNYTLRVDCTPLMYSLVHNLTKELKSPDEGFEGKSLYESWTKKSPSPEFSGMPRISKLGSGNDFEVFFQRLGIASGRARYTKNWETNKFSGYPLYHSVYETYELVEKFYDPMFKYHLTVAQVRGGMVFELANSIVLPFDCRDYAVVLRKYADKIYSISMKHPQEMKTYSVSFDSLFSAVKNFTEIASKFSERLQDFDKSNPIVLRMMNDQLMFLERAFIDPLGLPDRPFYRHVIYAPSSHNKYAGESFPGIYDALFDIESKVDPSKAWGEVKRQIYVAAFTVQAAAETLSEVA
T1 sequence (P07766 23-207 limits assumed, form in doubt, chain 1 of 3): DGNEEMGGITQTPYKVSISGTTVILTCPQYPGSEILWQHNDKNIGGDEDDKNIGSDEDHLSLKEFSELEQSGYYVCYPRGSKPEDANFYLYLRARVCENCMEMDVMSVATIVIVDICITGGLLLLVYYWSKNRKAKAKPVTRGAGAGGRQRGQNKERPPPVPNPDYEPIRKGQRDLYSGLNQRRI
T1 sequence (P04234 22-171 limits assumed, form in doubt, chain 2 of 3): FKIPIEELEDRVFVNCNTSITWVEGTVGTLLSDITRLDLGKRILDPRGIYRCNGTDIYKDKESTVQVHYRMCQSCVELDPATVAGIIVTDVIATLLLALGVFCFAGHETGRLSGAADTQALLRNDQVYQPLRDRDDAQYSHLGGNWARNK
T1 sequence (P09693 23-182 limits assumed, form in doubt, chain 3 of 3): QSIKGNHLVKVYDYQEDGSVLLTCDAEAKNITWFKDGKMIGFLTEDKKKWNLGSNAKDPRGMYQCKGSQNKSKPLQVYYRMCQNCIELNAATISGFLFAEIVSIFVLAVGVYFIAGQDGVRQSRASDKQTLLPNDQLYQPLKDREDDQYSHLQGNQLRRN

B1: aCD3-aPSMA bispecific antibody (bispecific antibody)
chain 1: not shown
chain 2: EVQLVESGGGLVQPGGSLRLSCAASGFTFNTYAMNWVRQAPGKGLEWVARIRSKYNNYATYYADSVKDRFTISRDDSKNTLYLQMNSLRAEDTAVYYCVRHGNFGNSYVSWFAYWGQGTLVTVSS
notes: also called the bispecific antibody
In the case of B1, the results for the 50% effective concentration (EC50) in experiment [1] and in experiment [2] were 0.51 nM and 0.05 nM, respectively. Besides, the “LDH Killing EC50 (pM)” value in experiment [3] was found to be 184 pM.
